Assay results as given in WO2023028914A1 (dated 2023).

Biological target: T1, human Her3-His recombinant protein (human, UniProt P21860 20-643)
T1 construct: Recombinant His-tagged human Her3; not shown: His tag
Assay: BLI (Fortebio Octet 96e), antibody loaded on AMC sensor, human Her3-His 100-3.13 nM in solution

T1 sequence (P21860 20-643 limits assumed): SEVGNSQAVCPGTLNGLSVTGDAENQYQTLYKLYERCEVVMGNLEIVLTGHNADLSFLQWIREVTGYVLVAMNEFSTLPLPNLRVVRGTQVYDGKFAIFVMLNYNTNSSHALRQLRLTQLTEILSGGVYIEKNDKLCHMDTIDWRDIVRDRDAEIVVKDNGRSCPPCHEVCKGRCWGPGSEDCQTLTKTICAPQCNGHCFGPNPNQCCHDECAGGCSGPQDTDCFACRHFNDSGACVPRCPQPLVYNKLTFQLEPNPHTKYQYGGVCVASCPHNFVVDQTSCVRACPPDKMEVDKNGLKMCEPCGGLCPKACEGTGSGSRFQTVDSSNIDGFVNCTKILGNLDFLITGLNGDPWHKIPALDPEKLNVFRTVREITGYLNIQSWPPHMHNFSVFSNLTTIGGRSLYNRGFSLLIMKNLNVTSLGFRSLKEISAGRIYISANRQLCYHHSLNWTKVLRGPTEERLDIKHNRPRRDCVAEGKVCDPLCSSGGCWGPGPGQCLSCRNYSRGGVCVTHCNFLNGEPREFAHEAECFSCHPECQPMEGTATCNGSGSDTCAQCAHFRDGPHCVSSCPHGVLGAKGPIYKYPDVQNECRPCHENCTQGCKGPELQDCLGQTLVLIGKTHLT

Row | Binder | Kd | koff | kon
1 | monoclonal antibody 2F8 (antibody, V domains shown, also called 2F8-new; parental molecule 2F8) VH: QVQLQQWGAGLLKPSETLSLTCAVYGGSFSGYYWSWIRQPPGKGLEWIGEINHSGSTNYNPSLKSRVTISVETSKNQFSLKLSSVTAADTAVYYCARDKWTWYFDLWGRGTLVTVSS VL: not shown | 2.43 nM | 0.000357 s⁻¹ | 147000 M⁻¹ s⁻¹
2 | antibody 3F5 (light chain mutant 2F8-Lm1 combined with heavy chain 2F8-H-new) (antibody, human IgG1, kappa, V domains shown, also called 2F8-m1; 3F5 mutant) VH: QVQLQQWGAGLLKPSETLSLTCAVYGGSFSGYYWSWIRQPPGKGLEWIGEINHSGSTNYNPSLKSRVTISVETSKNQFSLKLSSVTAADTAVYYCARDKWTWYFDLWGRGTLVTVSS VL: not shown | 2.53 nM | 0.000393 s⁻¹ | 156000 M⁻¹ s⁻¹
